Results taken from patent US20140274782A1, “AFFINITY REAGENTS AND METHODS FOR DETECTION, PURIFICATION, AND PROTEOMIC ANALYSIS OF METHYLATED PROTEINS” (The Board of Trustees of the Leland Stanford Junior …, priority 2013, published 2014).
Blank lines part the entries; values can stand above or below the molecule they belong to.

How the values were obtained:
G9a and GLP = molecular target: T1, G9a and GLP (Homo sapiens, UniProt Q96KQ7+Q9H9B1); assay: Triple SILAC pull-down after UNC0638 treatment of 293T cells, DMSO/UNC0638 ratio of protein captured by 3×MBT; format: cell-based; set-up: cells were treated for 24 hours with UNC0638 at 2.5 μM or DMSO vehicle control; endogenous in cells; host or cells: HEK 293T; conditions: SILAC ratio of protein captured by 3xMBT, 293T cells treated 24 hours with UNC0638 at 2.5 μM or DMSO;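 further: mass spectrometry (Q-Exactive) SILAC quantitation, DMSO/UNC0638 ratio computed after subtracting 3×MBTD355N mutant pull-down background, only proteins with at least twofold 3×MBT over mutant signal considered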
T1 sequence (Q96KQ7 2-1210 limits assumed): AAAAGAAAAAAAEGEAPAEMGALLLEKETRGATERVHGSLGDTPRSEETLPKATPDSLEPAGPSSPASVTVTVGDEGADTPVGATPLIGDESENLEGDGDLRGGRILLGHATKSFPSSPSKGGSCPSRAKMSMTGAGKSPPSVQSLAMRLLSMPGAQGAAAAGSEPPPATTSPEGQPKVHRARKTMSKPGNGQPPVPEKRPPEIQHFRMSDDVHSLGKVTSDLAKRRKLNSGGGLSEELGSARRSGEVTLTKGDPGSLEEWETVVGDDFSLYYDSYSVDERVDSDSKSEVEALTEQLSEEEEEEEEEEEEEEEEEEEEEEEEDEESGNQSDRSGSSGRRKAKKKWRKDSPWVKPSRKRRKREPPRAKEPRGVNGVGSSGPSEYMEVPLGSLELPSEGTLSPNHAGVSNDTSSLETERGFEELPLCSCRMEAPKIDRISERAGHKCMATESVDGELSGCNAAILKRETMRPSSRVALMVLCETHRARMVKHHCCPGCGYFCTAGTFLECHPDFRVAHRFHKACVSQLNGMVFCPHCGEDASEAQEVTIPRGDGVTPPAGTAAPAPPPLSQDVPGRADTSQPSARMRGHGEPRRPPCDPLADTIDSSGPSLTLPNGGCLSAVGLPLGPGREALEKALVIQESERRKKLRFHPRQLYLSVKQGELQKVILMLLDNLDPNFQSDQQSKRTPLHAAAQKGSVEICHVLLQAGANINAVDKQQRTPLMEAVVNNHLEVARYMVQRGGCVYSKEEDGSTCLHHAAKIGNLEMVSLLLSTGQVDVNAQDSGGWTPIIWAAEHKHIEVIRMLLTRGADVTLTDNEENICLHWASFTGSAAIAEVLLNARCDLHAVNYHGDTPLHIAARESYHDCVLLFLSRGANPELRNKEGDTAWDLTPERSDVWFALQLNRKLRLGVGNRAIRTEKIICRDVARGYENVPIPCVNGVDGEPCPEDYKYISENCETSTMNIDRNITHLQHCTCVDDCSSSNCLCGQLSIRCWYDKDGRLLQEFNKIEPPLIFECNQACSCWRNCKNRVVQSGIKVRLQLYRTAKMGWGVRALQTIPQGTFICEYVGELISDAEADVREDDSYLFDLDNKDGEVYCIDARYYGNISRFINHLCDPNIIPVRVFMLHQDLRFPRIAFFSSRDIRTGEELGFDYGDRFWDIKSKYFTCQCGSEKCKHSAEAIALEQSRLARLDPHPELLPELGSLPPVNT
T1 sequence (Q9H9B1 2-1298 limits assumed): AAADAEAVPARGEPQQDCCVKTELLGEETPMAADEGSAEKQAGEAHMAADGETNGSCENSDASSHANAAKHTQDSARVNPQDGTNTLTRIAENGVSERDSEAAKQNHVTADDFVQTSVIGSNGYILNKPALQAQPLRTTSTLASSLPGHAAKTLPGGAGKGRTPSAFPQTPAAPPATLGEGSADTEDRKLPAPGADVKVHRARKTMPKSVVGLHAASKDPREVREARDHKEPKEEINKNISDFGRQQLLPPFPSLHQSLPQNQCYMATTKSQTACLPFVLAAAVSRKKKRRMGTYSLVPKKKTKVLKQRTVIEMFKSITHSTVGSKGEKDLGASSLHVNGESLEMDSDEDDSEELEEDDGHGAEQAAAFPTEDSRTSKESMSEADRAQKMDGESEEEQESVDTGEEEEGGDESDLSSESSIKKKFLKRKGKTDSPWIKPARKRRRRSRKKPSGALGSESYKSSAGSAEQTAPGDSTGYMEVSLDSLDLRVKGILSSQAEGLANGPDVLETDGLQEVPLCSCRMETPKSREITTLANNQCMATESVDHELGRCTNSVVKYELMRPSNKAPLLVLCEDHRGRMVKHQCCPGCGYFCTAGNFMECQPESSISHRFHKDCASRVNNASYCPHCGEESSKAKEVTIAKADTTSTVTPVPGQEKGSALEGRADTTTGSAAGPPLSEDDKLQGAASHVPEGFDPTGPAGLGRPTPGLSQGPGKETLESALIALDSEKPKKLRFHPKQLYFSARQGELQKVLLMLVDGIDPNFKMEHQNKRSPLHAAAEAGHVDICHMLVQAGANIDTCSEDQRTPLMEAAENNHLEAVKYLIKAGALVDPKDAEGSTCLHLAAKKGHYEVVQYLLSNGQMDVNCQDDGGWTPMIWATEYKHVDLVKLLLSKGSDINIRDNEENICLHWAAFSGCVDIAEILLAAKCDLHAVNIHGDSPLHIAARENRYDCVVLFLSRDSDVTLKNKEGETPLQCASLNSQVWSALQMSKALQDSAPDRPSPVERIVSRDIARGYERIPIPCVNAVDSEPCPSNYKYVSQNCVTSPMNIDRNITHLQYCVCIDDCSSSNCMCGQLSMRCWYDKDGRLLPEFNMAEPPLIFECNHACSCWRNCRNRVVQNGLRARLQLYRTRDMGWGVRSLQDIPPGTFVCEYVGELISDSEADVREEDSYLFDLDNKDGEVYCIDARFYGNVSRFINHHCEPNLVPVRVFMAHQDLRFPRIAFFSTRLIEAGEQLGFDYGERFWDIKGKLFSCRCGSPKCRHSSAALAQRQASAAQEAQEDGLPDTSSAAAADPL

3×MBT domain of L3MBTL1 = assay: Triple SILAC pull-down, 3xMBT/3xMBTD355N ratio (cytoplasmic, nuclear and chromatin fractions of 293T cells); format: binding, human; conditions: SILAC ratio, pull-down by 3xMBT vs 3xMBTD355N, 293T cells;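 further: proteins quantified with MaxQuant, requiring at least two unique peptides and quantification in both label directions, normalized to the mean of proteins from a digested loading control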

- Protein Ratios DMSO/UNC0638 (G9a and GLP): 1.3
B1: Heterogeneous nuclear ribonucleoprotein L (protein, UniProt P14866 1-589, looked up)
Heterogeneous nuclear …: MSRRLLPRAEKRRRRLEQRQQPDEQRRRSGAMVKMAAAGGGGGGGRYYGGGSEGGRAPKRLKTDNAGDQHGGGGGGGGGAGAAGGGGGGENYDDPHKTPASPVVHIRGLIDGVVEADLVEALQEFGPISYVVVMPKKRQALVEFEDVLGACNAVNYAADNQIYIAGHPAFVNYSTSQKISRPGDSDDSRSVNSVLLFTILNPIYSITTDVLYTICNPCGPVQRIVIFRKNGVQAMVEFDSVQSAQRAKASLNGADIYSGCCTLKIEYAKPTRLNVFKNDQDTWDYTNPNLSGQGDPGSNPNKRQRQPPLLGDHPAEYGGPHGGYHSHYHDEGYGPPPPHYEGRRMGPPVGGHRRGPSRYGPQYGHPPPPPPPPEYGPHADSPVLMVYGLDQSKMNCDRVFNVFCLYGNVEKVKFMKSKPGAAMVEMADGYAVDRAITHLNNNFMFGQKLNVCVSKQPAIMPGQSYGLEDGSCSYKDFSESRNNRFSTPEQAAKNRIQHPSNVLHFFNAPLEVTEENFFEICDELGVKRPSSVKVFSGKSERSSSGLLEWESKSDALETLGFLNHYQMKNPNGPYPYTLKLCFSTAQHAS
- Protein Ratios 3xMBT/D355N (3×MBT domain of L3MBTL1): 2.4

- Protein Ratios DMSO/UNC0638 (G9a and GLP): 1.3
B2: Probable ATP-dependent RNA helicase DDX23 (protein, UniProt Q9BUQ8 1-820, looked up)
Probable ATP-dependent RNA …: MAGELADKKDRDASPSKEERKRSRTPDRERDRDRDRKSSPSKDRKRHRSRDRRRGGSRSRSRSRSKSAERERRHKERERDKERDRNKKDRDRDKDGHRRDKDRKRSSLSPGRGKDFKSRKDRDSKKDEEDEHGDKKPKAQPLSLEELLAKKKAEEEAEAKPKFLSKAEREAEALKRRQQEVEERQRMLEEERKKRKQFQDLGRKMLEDPQERERRERRERMERETNGNEDEEGRQKIREEKDKSKELHAIKERYLGGIKKRRRTRHLNDRKFVFEWDASEDTSIDYNPLYKERHQVQLLGRGFIAGIDLKQQKREQSRFYGDLMEKRRTLEEKEQEEARLRKLRKKEAKQRWDDRHWSQKKLDEMTDRDWRIFREDYSITTKGGKIPNPIRSWKDSSLPPHILEVIDKCGYKEPTPIQRQAIPIGLQNRDIIGVAETGSGKTAAFLIPLLVWITTLPKIDRIEESDQGPYAIILAPTRELAQQIEEETIKFGKPLGIRTVAVIGGISREDQGFRLRMGCEIVIATPGRLIDVLENRYLVLSRCTYVVLDEADRMIDMGFEPDVQKILEHMPVSNQKPDTDEAEDPEKMLANFESGKHKYRQTVMFTATMPPAVERLARSYLRRPAVVYIGSAGKPHERVEQKVFLMSESEKRKKLLAILEQGFDPPIIIFVNQKKGCDVLAKSLEKMGYNACTLHGGKGQEQREFALSNLKAGAKDILVATDVAGRGIDIQDVSMVVNYDMAKNIEDYIHRIGRTGRAGKSGVAITFLTKEDSAVFYELKQAILESPVSSCPPELANHPDAQHKPGTILTKKRREETIFA
- Protein Ratios 3xMBT/D355N (3×MBT domain of L3MBTL1): 4.8

- Protein Ratios DMSO/UNC0638 (G9a and GLP): 1.4
B3: Probable ATP-dependent RNA helicase DDX46 (protein, UniProt Q7L014 2-1031, looked up)
Probable ATP-dependent RNA …: GRESRHYRKRSASRGRSGSRSRSRSPSDKRSKRGDDRRSRSRDRDRRRERSRSRDKRRSRSRDRKRLRRSRSRERDRSRERRRSRSRDRRRSRSRSRGRRSRSSSPGNKSKKTENRSRSKEKTDGGESSKEKKKDKDDKEDEKEKDAGNFDQNKLEEEMRKRKERVEKWREEQRKKAMENIGELKKEIEEMKQGKKWSLEDDDDDEDDPAEAEKEGNEMEGEELDPLDAYMEEVKEEVKKFNMRSVKGGGGNEKKSGPTVTKVVTVVTTKKAVVDSDKKKGELMENDQDAMEYSSEEEEVDLQTALTGYQTKQRKLLEPVDHGKIEYEPFRKNFYVEVPELAKMSQEEVNVFRLEMEGITVKGKGCPKPIKSWVQCGISMKILNSLKKHGYEKPTPIQTQAIPAIMSGRDLIGIAKTGSGKTIAFLLPMFRHIMDQRSLEEGEGPIAVIMTPTRELALQITKECKKFSKTLGLRVVCVYGGTGISEQIAELKRGAEIIVCTPGRMIDMLAANSGRVTNLRRVTYVVLDEADRMFDMGFEPQVMRIVDNVRPDRQTVMFSATFPRAMEALARRILSKPIEVQVGGRSVVCSDVEQQVIVIEEEKKFLKLLELLGHYQESGSVIIFVDKQEHADGLLKDLMRASYPCMSLHGGIDQYDRDSIINDFKNGTCKLLVATSVAARGLDVKHLILVVNYSCPNHYEDYVHRAGRTGRAGNKGYAYTFITEDQARYAGDIIKALELSGTAVPPDLEKLWSDFKDQQKAEGKIIKKSSGFSGKGFKFDETEQALANERKKLQKAALGLQDSDDEDAAVDIDEQIESMFNSKKRVKDMAAPGTSSVPAPTAGNAEKLEIAKRLALRINAQKNLGIESQDVMQQATNAILRGGTILAPTVSAKTIAEQLAEKINAKLNYVPLEKQEEERQDGGQNESFKRYEEELEINDFPQTARWKVTSKEALQRISEYSEAAITIRGTYFPPGKEPKEGERKIYLAIESANELAVQKAKAEITRLIKEELIRLQNSYQPTNKGRYKVL
- Protein Ratios 3xMBT/D355N (3×MBT domain of L3MBTL1): 5.2

- Protein Ratios DMSO/UNC0638 (G9a and GLP): 1.3
B4: WD repeat-containing protein 70 (protein, UniProt Q9NW82 1-654, looked up)
WD repeat-containing protein …: MERSGPSEVTGSDASGPDPQLAVTMGFTGFGKKARTFDLEAMFEQTRRTAVERSRKTLEAREKEEEMNREKELRRQNEDIEPTSSRSNVVRDCSKSSSRDTSSSESEQSSDSSDDELIGPPLPPKMVGKPVNFMEEDILGPLPPPLNEEEEEAEEEEEEEEEEENPVHKIPDSHEITLKHGTKTVSALGLDPSGARLVTGGYDYDVKFWDFAGMDASFKAFRSLQPCECHQIKSLQYSNTGDMILVVSGSSQAKVIDRDGFEVMECIKGDQYIVDMANTKGHTAMLHTGSWHPKIKGEFMTCSNDATVRTWEVENPKKQKSVFKPRTMQGKKVIPTTCTYSRDGNLIAAACQNGSIQIWDRNLTVHPKFHYKQAHDSGTDTSCVTFSYDGNVLASRGGDDSLKLWDIRQFNKPLFSASGLPTMFPMTDCCFSPDDKLIVTGTSIQRGCGSGKLVFFERRTFQRVYEIDITDASVVRCLWHPKLNQIMVGTGNGLAKVYYDPNKSQRGAKLCVVKTQRKAKQAETLTQDYIITPHALPMFREPRQRSTRKQLEKDRLDPLKSHKPEPPVAGPGRGGRVGTHGGTLSSYIVKNIALDKTDDSNPREAILRHAKAAEDSPYWVSPAYSKTQPKTMFAQVESDDEEAKNEPEWKKRKI
- Protein Ratios 3xMBT/D355N (3×MBT domain of L3MBTL1): 5.9

- Protein Ratios DMSO/UNC0638 (G9a and GLP): 1.3
B5: Protein syndesmos (protein, UniProt Q9BRJ7 1-211, looked up)
Tudor-interacting repair …: MSTAAVPELKQISRVEAMRLGPGWSHSCHAMLYAANPGQLFGRIPMRFSVLMQMRFDGLLGFPGGFVDRRFWSLEDGLNRVLGLGLGCLRLTEADYLSSHLTEGPHRVVAHLYARQLTLEQLHAVEISAVHSRDHGLEVLGLVRVPLYTQKDRVGGFPNFLSNAFVSTAKCQLLFALKVLNMMPEEKLVEALAAATEKQKKALEKLLPASS
- Protein Ratios 3xMBT/D355N (3×MBT domain of L3MBTL1): 3.5
